Assay results as given in patent US20240376170A1 (BRIGHT PEAK THERAPEUTICS, published 2024).
Values joined by “and” are separate entries in the source; they are usually repeats but may differ in a detail not shown here. Equal entries are not always repeated. Blank lines part the entries; values can stand above or below the binder they belong to. Primed or numbered codes have the meaning given here. [ ]: non-standard residue; d: D form. Ygp = O-(8x polyethylene glycol-amino)-tyrosine (Tyr, amino-capped PEG8); Yn3 = O-(9x polyethylene glycol-azido)-tyrosine (Tyr, azide-capped PEG9); Ygp(7) = Tyr with amino-capped PEG8, O-(PEG8-amino)-tyrosine; Yn3(7) = Tyr with azide-capped PEG9, O-(PEG9-azido)-tyrosine; Ygp″ = O-(8x polyethylene glycol-amino)-tyrosine; Yn3″ = O-(9x polyethylene glycol-azido)-tyrosine; Ygp(3) = O-(PEG8-amino)-tyrosine; Yn3(3) = O-(PEG9-azido)-tyrosine; hSer = N[C@@H](CCO)C(=O)O; Nle = CCCC[C@H](N)C(=O)O; Dab = NCC[C@H](N)C(=O)O

Experiments:
IL-2 receptor βγ complex [1] = target: T1, IL-2 receptor βγ complex (human, UniProt P14784 27-551; P31785 23-369); assay: cell-based or functional assay
T1 sequence (looked up) 1: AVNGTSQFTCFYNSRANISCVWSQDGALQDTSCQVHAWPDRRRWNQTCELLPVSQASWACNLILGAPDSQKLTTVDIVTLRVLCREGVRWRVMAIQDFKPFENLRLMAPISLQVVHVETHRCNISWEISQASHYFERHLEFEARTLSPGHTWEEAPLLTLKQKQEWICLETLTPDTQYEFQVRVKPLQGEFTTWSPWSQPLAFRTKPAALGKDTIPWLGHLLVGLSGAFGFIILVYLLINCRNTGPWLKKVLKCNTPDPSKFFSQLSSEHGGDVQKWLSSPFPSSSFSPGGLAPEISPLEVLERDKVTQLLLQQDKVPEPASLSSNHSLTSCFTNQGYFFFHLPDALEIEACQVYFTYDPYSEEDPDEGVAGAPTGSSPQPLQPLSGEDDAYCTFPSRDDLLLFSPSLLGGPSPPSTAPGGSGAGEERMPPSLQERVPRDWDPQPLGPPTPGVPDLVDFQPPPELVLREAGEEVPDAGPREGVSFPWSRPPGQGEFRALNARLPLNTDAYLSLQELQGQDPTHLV
T1 sequence (looked up) 2: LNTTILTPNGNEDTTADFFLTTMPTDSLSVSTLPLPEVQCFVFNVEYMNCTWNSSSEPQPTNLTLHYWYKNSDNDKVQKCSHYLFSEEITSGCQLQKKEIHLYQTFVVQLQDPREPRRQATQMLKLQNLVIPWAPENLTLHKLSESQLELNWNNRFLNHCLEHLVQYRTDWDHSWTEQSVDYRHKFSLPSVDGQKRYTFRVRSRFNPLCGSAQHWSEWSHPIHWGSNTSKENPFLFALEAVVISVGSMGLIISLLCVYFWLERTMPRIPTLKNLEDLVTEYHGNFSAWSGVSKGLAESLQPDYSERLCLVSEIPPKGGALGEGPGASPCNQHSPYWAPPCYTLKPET

IL-2 receptor βγ complex [2] = target: T1, IL-2 receptor βγ complex; assay: cell-based or functional assay; remark: listed apart in the source
[3] = target: T2, IL-2 receptor βγ complex on C57BL/6 mouse splenocytes (mouse, UniProt P16297 27-539; P34902 23-369); assay: cell-based or functional assay
T2 sequence (looked up) 1: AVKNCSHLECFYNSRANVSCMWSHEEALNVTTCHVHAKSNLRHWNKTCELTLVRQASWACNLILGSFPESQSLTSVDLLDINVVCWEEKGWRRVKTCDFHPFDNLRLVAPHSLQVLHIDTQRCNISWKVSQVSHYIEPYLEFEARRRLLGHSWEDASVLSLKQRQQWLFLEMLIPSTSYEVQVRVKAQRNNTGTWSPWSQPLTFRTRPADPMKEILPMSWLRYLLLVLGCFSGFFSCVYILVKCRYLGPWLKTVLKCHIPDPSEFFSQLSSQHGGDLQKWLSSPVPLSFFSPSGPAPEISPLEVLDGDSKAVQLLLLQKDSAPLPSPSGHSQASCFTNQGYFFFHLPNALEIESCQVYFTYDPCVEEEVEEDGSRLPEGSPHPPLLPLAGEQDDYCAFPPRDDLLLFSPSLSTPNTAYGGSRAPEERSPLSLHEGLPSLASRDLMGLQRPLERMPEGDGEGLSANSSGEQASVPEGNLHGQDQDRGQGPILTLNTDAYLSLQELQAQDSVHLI
T2 sequence (looked up) 2: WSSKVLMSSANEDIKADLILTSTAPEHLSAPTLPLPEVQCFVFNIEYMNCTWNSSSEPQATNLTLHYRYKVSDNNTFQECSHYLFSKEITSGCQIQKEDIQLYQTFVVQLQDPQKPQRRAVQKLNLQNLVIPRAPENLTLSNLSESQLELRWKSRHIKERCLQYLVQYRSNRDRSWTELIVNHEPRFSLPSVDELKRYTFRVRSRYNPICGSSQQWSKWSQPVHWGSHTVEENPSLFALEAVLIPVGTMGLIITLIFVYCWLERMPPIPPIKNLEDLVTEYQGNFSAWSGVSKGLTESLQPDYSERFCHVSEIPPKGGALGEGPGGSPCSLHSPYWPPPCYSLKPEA

[4] = target: T3, IL-2 receptor βγ complex on human T cells (human, UniProt P14784 27-551; P31785 23-369); assay: cell-based or functional assay
T3 sequence (looked up) 1: T1 sequence (looked up) 1
T3 sequence (looked up) 2: T1 sequence (looked up) 2

[5] = target: T4, Avi-tag Fc with human IL-2R beta and IL-2R gamma attached (Acrobiosystems ACRB-ILG-H82F3-25UG) (human, UniProt P14784 27-239; P31785 23-262); assay: BLI (Octet R8), receptor on SAX2 sensor
T4 construct: Bought; attached to the SAX2 biosensor; also called CD122 CD132; IL-2R βγ; not shown: Fc and Avi-tag
T4 sequence (looked up) 1: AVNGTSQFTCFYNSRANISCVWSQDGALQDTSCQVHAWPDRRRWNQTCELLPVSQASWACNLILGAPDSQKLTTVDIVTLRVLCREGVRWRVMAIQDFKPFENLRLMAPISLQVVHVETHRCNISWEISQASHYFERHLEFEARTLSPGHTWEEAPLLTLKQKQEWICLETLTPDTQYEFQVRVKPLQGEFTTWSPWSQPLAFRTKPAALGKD
T4 sequence (looked up) 2: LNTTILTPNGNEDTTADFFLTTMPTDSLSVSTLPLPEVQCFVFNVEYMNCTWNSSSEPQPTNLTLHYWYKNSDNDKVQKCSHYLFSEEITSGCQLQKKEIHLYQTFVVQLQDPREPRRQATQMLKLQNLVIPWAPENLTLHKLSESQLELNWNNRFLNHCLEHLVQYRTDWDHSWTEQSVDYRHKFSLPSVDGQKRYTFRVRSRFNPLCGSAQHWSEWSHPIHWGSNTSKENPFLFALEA
Protocol: (§1) Bilayer interferometry (BLI) assays were used to measure the binding constants between activatable IL-2 polypeptides (and activated versions thereof) to IL-2 receptor subunits or receptor complexes. BLI assays were conducted on an Octet® R8 instrument. Assay plates were 96 well, polypropylene, F-bottom (chimney well), black microplates (Greiner Bio-one, Cat. No: 655209). The biosensors were Octet® SAX2 (Sartorius, Cat. No: 18-5136). The assay buffer was 1X Kinetic Buffer (Sartorius, Cat. no: 18-5136) or Phosphate Buffered Saline (PBS) that contained 0.02% (v: v) Tween 20 (Polysorbate 20) and 0.1% (w/v) bovine serum albumin (BSA). The sensor was regenerated between measurements in 10 mM glycine pH 2.7 buffer.
(§2) Sensor attached receptors were either recombinant human IL-2 receptor beta containing a His-tag and Avi-tag™ (R&D Systems™) or an Avi-tag™ Fc with human IL-2R beta and IL-2R gamma attached (Acrobiosystems Cat. no: ACRB-ILG-H₈₂F3-25UG). Receptors were reconstituted from lyophilized powder to 500 μg/ml in PBS. Analytes were diluted in Kinetic buffer to 300 nM, then serially diluted to lower concentrations.

[6] = target: T5, recombinant human IL-2 receptor beta containing a His-tag and Avi-tag (human, UniProt P14784 27-239); assay: BLI (Octet R8), receptor on SAX2 sensor; construct CMP-145, not MMP2-treated
T5 construct: Bought; attached to the SAX2 biosensor; also called CD122; IL-2R β; not shown: His-tag and Avi-tag
T5 sequence (looked up): T4 sequence (looked up) 1
Protocol: as §1, §2

[7] = target: T4, Avi-tag Fc with human IL-2R beta and …; assay: as above
Protocol: as §1, §2

Average EC50, pSTAT5 Assay (T cells) (IL-2 receptor βγ complex [1]): 2.4 nM
Average EC50, pSTAT5 Assay in NK cells (IL-2 receptor βγ complex [2]): 0.277 nM
Average EC50, pSTAT5 Assay in mouse splenocytes [3]: 84.7 nM
B1: CMP-136, MMP2 cleaved molecule (ligand)
chain: APTSSSTKKTQLQLEHLLLDLQ[Nle]ILNGIENYKNPKLTR[Nle]L[hSer][Yn3]KF[Ygp][Nle]PKKATELKHLQCLEEELKPLEEVL[hSer]LAQSKNFHLRPRDLISNINVIVLELKGSETTF[hSer]CEYADETATIVEFLNRWITFSQSIISTLT
modifications: ends and bridges not checked; also: cleaved by MMP2, cleavage product not defined, N-terminal PEG9 link and Glu29 side-chain attachment of the cleavable peptide not defined

Average EC50, pSTAT5 Assay in NK cells (IL-2 receptor βγ complex [2]): 82 pM and 0.246 nM
Average EC50, pSTAT5 Assay in mouse splenocytes [3]: 55.2 nM
B3: CMP-145, MMP2 cleaved molecule (ligand)
chain: APTSSSTKKTQLQLEHLLLDLQKILNGINNYKNPKLTR[Nle]L[hSer][Yn3]KF[Ygp][Nle]PKKATELKHLQCLEEELKPLEEVL[hSer]LAQSKNFHLRPRDLISNINVIVLELKGSETTF[hSer]CEYADETATIVEFLNRWITFSQSIISTLT
modifications: ends and bridges not checked; also: Lys23 side chain attached to another sequence (cleavable peptide), cut by MMP2, product not given here

Average EC50, pSTAT5 Assay (T cells) (IL-2 receptor βγ complex [1]): 2.32 nM
Average EC50, pSTAT5 Assay in NK cells (IL-2 receptor βγ complex [2]): 0.288 nM
Average EC50, pSTAT5 Assay in mouse splenocytes [3]: 75.1 nM
B4: CMP-138, MMP2 cleaved molecule (ligand)
chain: APTSSSTKKTQLQLEHLLLDLQ[Nle]ILNGIENYKNPKLTR[Nle]L[hSer][Yn3]KF[Ygp][Nle]PKKATELKHLQCLEEELKPLEEVL[hSer]LAQSKNFHLRPRDLISNINVIVLELKGSETTF[hSer]CEYADETATIVEFLNRWITFSQSIISTLT
modifications: ends and bridges not checked; also: cleaved by MMP2, cleavage product not defined, N-terminal PEG4 link and Glu29 side-chain attachment of the cleavable peptide not defined

Average EC50, pSTAT5 Assay (T cells) (IL-2 receptor βγ complex [1]): 1.81 nM
Average EC50, pSTAT5 Assay in NK cells (IL-2 receptor βγ complex [2]): 0.352 nM
Average EC50, pSTAT5 Assay in mouse splenocytes [3]: 89.2 nM
B6: CMP-151, MMP2 cleaved molecule (ligand)
chain: APTSSSTKKTQLQLEHLLLDLQKILNGINNYKNPKLTR[Nle]L[hSer][Yn3″]KF[Ygp″][Nle]PKKATELKHLQCLEEELKPLEEVL[hSer]LAQSKNFHLRPRDLISNINVIVLELKGSETTF[hSer]CEYADETATIVEFLNRWITFSQSIISTLT
modifications: not fully specified; also: cleaved by MMP2, cleavage product not defined, N-terminal glutaryl-PEG9 link and Lys23 side-chain attachment not defined

koff [5]: 0.00117 s⁻¹
Kd [6]: 1830 nM
Kd [7]: 10.2 nM
B8: CMP-145 (ligand)
chain: APTSSSTKKTQLQLEHLLLDLQKILNGINNYKNPKLTR[Nle]L[hSer][Yn3(3)]KF[Ygp(3)][Nle]PKKATELKHLQCLEEELKPLEEVL[hSer]LAQSKNFHLRPRDLISNINVIVLELKGSETTF[hSer]CEYADETATIVEFLNRWITFSQSIISTLT
modifications: also: Lys23 side chain attached to another sequence (not given here)
notes: Synthetic IL-2 polypeptide, tested intact

The remaining lines, values behind:

B2: CMP-130 (ligand)
chain: APTSSSTKKTQLQLE[Dab]LLLDLQ[Nle]ILNGINNYKNPKLTR[Nle]L[hSer][Yn3(7)]KF[Ygp(7)][Nle]PKKATELKHLQCLEEELKPLEEVL[hSer]LAQSKNFHLRPRDLISNINVIVLELKGSETTF[hSer]CEYADETATIVEFLNRWITFSQSIISTLT
modifications: ends and bridges not checked
Average EC50, pSTAT5 Assay (T cells), intact molecule [4]: 66.8 nM

B5: CMP-003 (ligand)
chain: APTSSSTKKTQLQLEHLLLDLQ[Nle]ILNGINNYKNPKLTR[Nle]L[hSer][Yn3]KF[Ygp][Nle]PKKATELKHLQCLEEELKPLEEVL[hSer]LAQSKNFHLRPRDLISNINVIVLELKGSETTF[hSer]CEYADETATIVEFLNRWITFSQSIISTLT
modifications: ends and bridges not checked
Average EC50, pSTAT5 Assay in mouse splenocytes [3]: 24 nM

B7: CMP-003, MMP2 treated (ligand)
chain: APTSSSTKKTQLQLEHLLLDLQ[Nle]ILNGINNYKNPKLTR[Nle]L[hSer][Yn3]KF[Ygp][Nle]PKKATELKHLQCLEEELKPLEEVL[hSer]LAQSKNFHLRPRDLISNINVIVLELKGSETTF[hSer]CEYADETATIVEFLNRWITFSQSIISTLT
modifications: ends and bridges not checked
Average EC50, pSTAT5 Assay in mouse splenocytes [3]: 45.7 nM
